Assay results as given in paper PMC9242648.

Columns and labels:
[1] = molecular target: human essential light chain (MYL3) (UniProt P08590); assay: Coomassie SDS-PAGE gel-based light chain loading assay; conditions: read off a plot
[2] = molecular target: human regulatory light chain (MYL2) (UniProt P10916); assay: as above; conditions: read off a plot

ratio to parent [1]	ratio to parent [2]	Substance
1.1	1.3	human β-cardiac myosin 2-hep heavy chain, wild type D778V
0.99	1.2	human β-cardiac myosin 2-hep heavy chain, wild type L781P
